The source of these data is patent publication US7038022, “Multimeric forms of members of the steroid/thyroid superfamily of receptors” (The Salk Institute for Biological Studies).

Series [1] concerns the target T1, COUP-TF/RXRalpha heterodimer (UniProt P10589;P19793 P10589:1-423,P19793:1-462). The series is described as follows: EMSA; supershift data similar to DR-1. Particulars: tags: RXR as GST fusion; label: 32P.
In series [2] the target is T2, RAR/RXR heterodimer (UniProt P10276;P19793 P10276:1-462,P19793:1-462). The experiment in a line: EMSA; high affinity; 10-fold excess of unlabeled site competes. Particulars: label: 32P.
Series [3] deals with the molecule itself. The series is described as follows: gel mobility shift, 32P-labeled DR-1 probe.
The target of series [4] is T3, hRARα expressed in cells from RS-hRARα (human, UniProt P10276 1-462).
T3 construct: Intracellular expression; whole cell extracts in the Cos cell gel shifts; also called RS-hRARa; RS-RARα
T3 sequence (looked up): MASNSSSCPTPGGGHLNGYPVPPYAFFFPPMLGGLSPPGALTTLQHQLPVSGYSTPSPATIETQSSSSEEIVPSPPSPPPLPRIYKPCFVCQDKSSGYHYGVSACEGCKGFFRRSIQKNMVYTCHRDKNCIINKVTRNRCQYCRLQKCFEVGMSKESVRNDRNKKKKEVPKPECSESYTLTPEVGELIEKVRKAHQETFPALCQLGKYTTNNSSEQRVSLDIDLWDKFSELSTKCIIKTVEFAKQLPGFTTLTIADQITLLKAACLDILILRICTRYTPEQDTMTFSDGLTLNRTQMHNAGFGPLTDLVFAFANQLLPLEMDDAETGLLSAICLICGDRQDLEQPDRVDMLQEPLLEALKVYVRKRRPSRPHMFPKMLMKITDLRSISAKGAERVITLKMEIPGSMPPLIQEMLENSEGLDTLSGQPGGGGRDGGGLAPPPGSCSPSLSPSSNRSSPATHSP
The series is described as follows: gel mobility shift, βRARE probe, whole-cell extracts of transfected Cos cells. The procedure:
DNA-protein complexes were resolved on a 4% polyacrylamide gel in 0.5×TBE (1×TBE=90 mM Tris, 90 mM boric acid, 2 mM EDTA).

The target of series [5] is T4, COUP-TF (EAR-3) (UniProt P10589 P10589:1-423).
T4 sequence: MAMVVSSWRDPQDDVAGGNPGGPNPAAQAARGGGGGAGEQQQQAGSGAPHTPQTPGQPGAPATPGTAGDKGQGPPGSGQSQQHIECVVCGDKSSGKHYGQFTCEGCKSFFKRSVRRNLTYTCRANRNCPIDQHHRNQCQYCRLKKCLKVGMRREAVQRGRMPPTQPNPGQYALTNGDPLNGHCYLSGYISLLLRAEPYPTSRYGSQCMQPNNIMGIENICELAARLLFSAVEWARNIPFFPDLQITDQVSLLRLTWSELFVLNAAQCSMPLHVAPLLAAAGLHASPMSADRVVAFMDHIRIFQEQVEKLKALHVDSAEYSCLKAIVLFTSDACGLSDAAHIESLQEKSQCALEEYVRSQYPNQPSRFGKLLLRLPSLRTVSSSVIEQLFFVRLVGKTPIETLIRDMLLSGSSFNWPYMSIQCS
The series is described as follows: EMSA; COUP-TF-specific complex, 500 ng protein. Particulars: tags: none, pET-8C bacterial expression, partially purified; label: 32P. The procedure:
(§1) Bacterial-expressed COUP-TF and RXR-glutathione-S-transferase fusion protein (RXR-GST) were mixed and the resulting complexes analyzed by gel mobility shift assays using ^32P-labeled DR-1 oligonucleotide (i e., SEQ ID No. 21) as probe. The larger RXR fusion protein was used in order to maximize the migratory differences observed between the COUP-TF and RXR complexes.
(§2) Gel mobility shift assays were performed using ^32P-labeled DR-1 oligonucleotide (SEQ ID No. 21) in the presence of partially-purified COUP-TF (500 ng) and increasing amounts of partially-purified RXR (1×–50 ng) as indicated in FIG. 1. Either 0.3 μl or 1 μl of RXR-specific antiserum was included in the assays (shown in lanes 11 and 12, respectively). The positions of the RXR-specific and COUP-TF-specific complexes are indicated in FIG. 1 by a plain line ("–"). […] The free probe was run off the gel and is not shown.
A general note: A gel shift assay detects complexes by their altered migration in electrophoresis.

Series [6] has as its target T1, COUP-TF/RXRalpha heterodimer. The series is described as follows: EMSA; heterodimer favored over homodimers; supershifted by RXR antiserum. The following applies: tags: RXR as GST fusion; label: 32P. The procedure: as §1, §2
Series [7] concerns the target T2, RAR/RXR heterodimer. The series is described as follows: EMSA; high affinity; also competes for CRBPII-RXRE binding. The following applies: label: 32P.

B1: COUP-TF RE (ovalbumin) (dsDNA)
DNA 1: AGCTTGGTGTCAAAGGTCAAACTTAGCT
DNA 2: AGCTAAGTTTGACCTTTGACACCAAGCT
With B1, in series [1], the binding result is given as “binds”.

B2: CRBPII-RXRE (dsDNA)
DNA 1: AGCTGTCACAGGTCACAGGTCACAGGTCACAGTTCAAGCT
DNA 2: AGCTTGAACTGTGACCTGTGACCTGTGACCTGTGACAGCT
As to B2, the binding result in series [2] is reported as “binds”.

B3: chicken ovalbumin upstream promotor transcription factor (COUP-TF; EAR-3) (receptor, UniProt P10589 1-423, looked up)
chain: T4 sequence
notes: mature; Partially purified bacterial protein in the gel shifts; also called bacterially-expressed COUP-TF; RS-COUP-TF product
On to B3, for which the binding result in series [3] was “binds”.

B4: hRXRα expressed in cells from RS-hRXRα (receptor, human, UniProt P19793 1-462, looked up)
chain: MDTKHFLPLDFSTQVNSSLTSPTGRGSMAAPSLHPSLGPGIGSPGQLHSPISTLSSPINGMGPPFSVISSPMGPHSMSVPTTPTLGFSTGSPQLSSPMNPVSSSEDIKPPLGLNGVLKVPAHPSGNMASFTKHICAICGDRSSGKHYGVYSCEGCKGFFKRTVRKDLTYTCRDNKDCLIDKRQRNRCQYCRYQKCLAMGMKREAVQEERQRGKDRNENEVESTSSANEDMPVERILEAELAVEPKTETYVEANMGLNPSSPNDPVTNICQAADKQLFTLVEWAKRIPHFSELPLDDQVILLRAGWNELLIASFSHRSIAVKDGILLATGLHVHRNSAHSAGVGAIFDRVLTELVSKMRDMQMDKTELGCLRAIVLFNPDSKGLSNPAEVEALREKVYASLEAYCKHKYPEQPGRFAKLLLRLPALRSIGLKCLEHLFFFKLIGDTPIDTFLMEMLEAPHQMT
notes: Intracellular expression; whole cell extracts in the Cos cell gel shifts; also called RS-hRXRa
For the molecule B4, the binding result in series [4] was “binds”.

B5: RXR-glutathione-S-transferase fusion protein (hRXRα expressed in bacteria as a fusion with glutathione-S-transferase, pGEX-2T) (receptor, human, UniProt P19793 1-462, looked up)
chain: B4 chain
notes: GST placed N-terminal as in pGEX-2T vectors; also called RXR-GST; GST-RXR; not shown: glutathione-S-transferase encoded by the pGEX-2T expression vector
As for B5, the binding result in series [3] is “binds”.

B6: DR-1 (dsDNA)
DNA 1: AGCTTCAGGTCAGAGGTCAGAGAGCT
DNA 2: AGCTCTCTGACCTCTGACCTGAAGCT
B6: the binding result in series [5] and in series [6] was “binds” throughout.

B7: βRARE (dsDNA)
DNA 1: AGCTTAAGGGTTCACCGAAAGTTCACTCGCATAGCTGCT
DNA 2: AGCAGCTATGCGAGTGAACTTTCGGTGAACCCTTAAGCT
For the molecule B7, the binding result in series [7] is recorded as “binds”.
